Source: patent US12338281B2, “Anti-adrenomedullin antibodies and pharmaceutical compositions thereof” (ADRENOMED AG, priority 2011, dated 2025)

Tests used:
Human ADM 1-52 = molecular target: T1, Human ADM 1-52 (Homo sapiens, UniProt P35318); experiment: Human recombinant Adrenomedullin receptor (CRLR+RAMP3) cAMP functional assay (Adrenomedullin Bioassay) in CHO-K1 cells, agonist human ADM; assay type: cell-based; details: Table 3; 5.63 nM Human ADM 1-52; antibody 0.16-100 μg/ml
T1 construct: host or cells: the receptor chains are made by transfected CHO-K1 cells (FAST-027C); ADM is an added peptide
T1 sequence (P35318 95-146): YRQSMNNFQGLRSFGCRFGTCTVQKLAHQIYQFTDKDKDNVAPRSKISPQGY
Protocol: The effect of selected ADM-antibodies on ADM-bioactivity was tested in an human recombinant Adrenomedullin receptor cAMP functional assay (Adrenomedullin Bioassay).
• Cell line: CHO-K1 • Receptor: Adrenomedullin (CRLR+RAMP3) • Receptor Accession Number Cell line: CRLR: U17473; RAMP3: AJ001016
Dose response curves were performed in parallel with the reference agonists (hADM or mADM).
For antagonist testing, 6 μl of the reference agonist (human (5.63 nM) or mouse (0.67 nM) adrenomedullin) was mixed with 6 μl of the test samples at different antagonist dilutions; or with 6 μl buffer. After incubation for 60 min at room temperature, 12 μl of cells (2,500 cells/well) were added. The plates were incubated for 30 min at room temperature.
The anti-h-ADM antibodies (NT-H, MR-H, CT-H) were tested for antagonist activity in human recombinant adrenomedullin receptor (FAST-027C) cAMP functional assay in the presence of 5.63 nM Human ADM 1-52, at the following final antibody concentrations: 100 μg/ml, 20 μg/ml, 4 μg/ml, 0.8 μg/ml, 0.16 μg/ml.

hADM = molecular target: T2, hADM (Homo sapiens, UniProt P35318); experiment: Stability of human Adrenomedullin in human citrate plasma, quantified by hADM immunoassay; assay type: in vitro ADME; details: 10 nM hADM, 24° C., NT-H 100 μg/ml
T2 sequence (P35318 95-146 limits assumed): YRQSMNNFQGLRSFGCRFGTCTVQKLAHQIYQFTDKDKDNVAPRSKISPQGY

- Maximal inhibition of ADM bioactivity (ADM-Bioassay) (%) (Human ADM 1-52): 38%
- half life of hADM in the presence of NT-H (hADM): 18.3 h
B1: NT-H: mouse monoclonal antibody raised against human ADM 1-21, … (SEQ ID: 15) (antibody, V domains shown)
VH: QVQLQQSGAELMKPGASVKISCKATGYTFSRYWIEWVKQRPGHGLEWIGEILPGSGSTNYNEKFKGKATITADTSSNTAYMQLSSLTSEDSAVYYCTEGYEYDGFDYWGQGTTLTVSS
VL: DVLLSQTPLSLPVSLGDQATISCRSSQSIVYSNGNTYLEWYLQKPGQSPKLLIYRVSNRFSGVPDRFSGSGSGTDFTLKISRVEAEDLGVYYCFQGSHIPYTFGGGTKLEIK
